Laboratory results taken from patent publication US12397035B2, “Compositions and methods for treatment” (Celosia Therapeutics Pty Ltd, priority 2019, dated 2025).

Key:
Format in all cases: binding
FOXO1 = molecular target: T1, FOXO1 (Homo sapiens, UniProt Q12778); assay: Co-immunoprecipitation of Fx with known 14-3-3θ partner FOXO1; details: data not shown
T1 construct: host or cells: 293T HEK cells

TDP-43 = molecular target: T2, TDP-43 (Homo sapiens, UniProt Q13148); assay: Co-immunoprecipitation of Fx (α-helix 6 of 14-3-3θ) with TDP-43; details: Fx expressed in cells, FIG. 5
T2 construct: expressed in transfected cells; host or cells: 293T HEK cells
Method: Immunoprecipitation. Immunoprecipitation was performed as previously described (Ittner et al., 2009, J Biol Chem 284: 20909-20916). Briefly, 293T HEK cells were co-transfected with variants of TDP-43 in pcDNA3.1/V5 and/or 14-3-3 isoforms/variants. Cells were lysed in RIPA buffer. Equal amounts of proteins were incubated overnight with 1 ul of V5 antibody (Life Technologies) and precipitated using magnetic Protein G beads (Life Technologies). Co-immunoprecipitation was further confirmed by Western blotting using myc antibodies.
Western blotting. Western blotting was performed as previously described (Ke et al., 2012, PLoS One 7: e35678). Primary antibodies used for immunoblotting were human TDP-43, c-terminal TDP-43, pan-TDP-43 (Proteintech), 14-3-3θ (Abeam), V5, myc (Life Technologies), phospho-TDP-43 S409/410 (Cosmobio), GAPDH (Merck-Millipore).
Cell culture and staining. All immunorecipitation experiments were carried out in 293T HEK cells. Cells were maintained in DMEM containing 10% fetal bovine serum (FBS) as per standard protocols. SH-SY5Y cells were maintained in DMEM/F-12 containing 10% FBS and used for 14-3-3θ overexpression or knockdown. Stable overexpression and knockdown of 14-3-3θ were achieved through lentiviral transduction. For immunocytochemistry, cells were fixed in 4% PFA and blocked with 3% heat-inactivated goat serum/2% BSA. […]

[1] = molecular target: T3, YES-associated protein (YAP) (Homo sapiens, UniProt P46937); assay: Co-immunoprecipitation of Fx with known 14-3-3θ partner YAP; details: data not shown
T3 construct: host or cells: 293T HEK cells
T3 sequence (P46937 whole entry): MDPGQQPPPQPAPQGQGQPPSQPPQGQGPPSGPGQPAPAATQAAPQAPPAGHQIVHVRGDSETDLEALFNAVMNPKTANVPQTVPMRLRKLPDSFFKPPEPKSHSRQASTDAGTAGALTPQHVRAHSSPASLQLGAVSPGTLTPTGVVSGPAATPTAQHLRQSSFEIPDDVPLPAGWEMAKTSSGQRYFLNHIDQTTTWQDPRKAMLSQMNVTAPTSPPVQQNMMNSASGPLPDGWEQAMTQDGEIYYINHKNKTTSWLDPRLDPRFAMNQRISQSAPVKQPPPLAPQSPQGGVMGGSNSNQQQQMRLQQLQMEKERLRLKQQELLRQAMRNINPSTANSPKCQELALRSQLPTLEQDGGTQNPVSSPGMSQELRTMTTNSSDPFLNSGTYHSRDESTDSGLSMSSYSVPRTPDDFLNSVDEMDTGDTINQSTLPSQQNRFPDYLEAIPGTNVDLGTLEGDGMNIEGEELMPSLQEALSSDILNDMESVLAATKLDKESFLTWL

T2 sequence (Q13148 whole entry): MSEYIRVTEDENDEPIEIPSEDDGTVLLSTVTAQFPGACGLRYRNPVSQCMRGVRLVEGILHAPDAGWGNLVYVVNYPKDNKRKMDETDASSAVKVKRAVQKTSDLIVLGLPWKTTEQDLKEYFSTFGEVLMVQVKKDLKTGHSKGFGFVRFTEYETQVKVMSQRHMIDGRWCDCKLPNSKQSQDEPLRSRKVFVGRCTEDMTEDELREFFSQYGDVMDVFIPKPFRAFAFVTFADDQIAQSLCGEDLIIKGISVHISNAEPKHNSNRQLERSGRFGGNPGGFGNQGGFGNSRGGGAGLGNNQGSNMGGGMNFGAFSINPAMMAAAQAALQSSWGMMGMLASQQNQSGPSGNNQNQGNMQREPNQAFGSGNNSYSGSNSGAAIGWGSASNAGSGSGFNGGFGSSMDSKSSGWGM
T1 sequence (Q12778 whole entry, species assumed): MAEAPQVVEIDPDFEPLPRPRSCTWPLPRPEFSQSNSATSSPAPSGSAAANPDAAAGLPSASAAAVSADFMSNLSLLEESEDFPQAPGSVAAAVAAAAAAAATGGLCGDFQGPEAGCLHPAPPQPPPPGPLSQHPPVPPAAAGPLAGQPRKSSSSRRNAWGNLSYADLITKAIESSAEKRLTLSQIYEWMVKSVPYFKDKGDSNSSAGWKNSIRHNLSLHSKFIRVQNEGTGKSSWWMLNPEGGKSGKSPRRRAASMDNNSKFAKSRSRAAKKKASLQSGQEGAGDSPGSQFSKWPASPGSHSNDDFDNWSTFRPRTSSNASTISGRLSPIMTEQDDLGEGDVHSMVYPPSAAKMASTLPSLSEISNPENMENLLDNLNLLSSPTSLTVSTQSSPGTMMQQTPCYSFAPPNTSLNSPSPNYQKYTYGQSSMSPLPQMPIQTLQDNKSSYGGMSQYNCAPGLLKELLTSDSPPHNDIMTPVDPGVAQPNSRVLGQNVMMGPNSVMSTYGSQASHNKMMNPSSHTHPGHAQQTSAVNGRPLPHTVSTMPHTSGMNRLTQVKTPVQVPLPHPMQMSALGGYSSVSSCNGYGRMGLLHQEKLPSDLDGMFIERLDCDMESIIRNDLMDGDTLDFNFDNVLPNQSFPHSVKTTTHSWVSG

Fx: construct including only α-helix 6 (αF) of 14-3-3θ, 30 amino acid sequence SEQ ID NO:2 (amino acids 135-164) (GDDRKQTIDNSQGAYQEAFDISKKEMQPTH; V5 tag in some forms; listed as Homo sapiens)
pull down of FOXO1 (FOXO1): failed to pull down
co-precipitation of TDP-43 (TDP-43): co-precipitated TDP-43
pull down of YES-associated protein (YAP) [1]: failed to pull down
